Test [1] concerns the target T1, CRF1R receptor (UniProt P34998 24-415, limits assumed).
T1 sequence (looked up): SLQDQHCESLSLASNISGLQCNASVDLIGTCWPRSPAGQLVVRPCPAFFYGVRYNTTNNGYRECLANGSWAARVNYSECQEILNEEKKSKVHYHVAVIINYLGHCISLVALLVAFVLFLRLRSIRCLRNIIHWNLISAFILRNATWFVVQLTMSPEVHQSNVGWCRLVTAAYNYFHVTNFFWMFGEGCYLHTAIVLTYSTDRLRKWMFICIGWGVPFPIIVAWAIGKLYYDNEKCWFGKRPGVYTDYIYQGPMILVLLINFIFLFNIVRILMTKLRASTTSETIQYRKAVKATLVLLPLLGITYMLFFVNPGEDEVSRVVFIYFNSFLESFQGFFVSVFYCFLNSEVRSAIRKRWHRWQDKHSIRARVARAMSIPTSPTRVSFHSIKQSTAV
Nature of the test: cell-based or functional assay.

Test [2] addresses human corticotropin-releasing factor 2a (CRF2a receptor) (human), Q13324. Nature of the test: cell-based or functional assay.

*1 amine or outer side, *2 acyl side, *3 side chain or, on linkers, in order; H or OH if unused. Where no end group is shown, it is not given here. Side-chain parts run from the residue outwards. [ ]: non-standard residue; d: D form. The star is where a group is joined. C16 diacid = O=C(O)CCCCCCCCCCCCCCC(=O)*; γGlu = O=C(O)[C@H](CCC(=O)[*:2])N[*:1]; NMeV = CN[C@H](C(=O)O)C(C)C; Api = NC1(C(=O)O)CCNCC1; Pentanoyl = CCCCC(=O)*; Aib = CC(C)(N)C(=O)O

As usually defined, the EC50 is the concentration giving half of the maximal effect. Read a low EC50 as greater potency.

Chain of human corticotropin-releasing factor 2a (CRF2a receptor) (human), Q13324 (Q13324 20-411): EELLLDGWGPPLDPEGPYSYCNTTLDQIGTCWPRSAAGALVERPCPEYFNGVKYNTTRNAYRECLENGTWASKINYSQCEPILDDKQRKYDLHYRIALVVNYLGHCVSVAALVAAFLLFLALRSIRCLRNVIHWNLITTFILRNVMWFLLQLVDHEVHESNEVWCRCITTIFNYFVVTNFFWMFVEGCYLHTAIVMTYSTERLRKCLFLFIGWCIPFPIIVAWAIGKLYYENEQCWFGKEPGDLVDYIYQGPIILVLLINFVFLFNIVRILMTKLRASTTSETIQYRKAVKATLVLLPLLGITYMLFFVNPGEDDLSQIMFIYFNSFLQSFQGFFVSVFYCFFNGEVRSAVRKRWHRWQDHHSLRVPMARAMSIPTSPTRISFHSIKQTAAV

Turning to Ac-IVLSLD[dV]PIKLK([γGlu-C16 diacid])KILLEQEKQK[Aib]QREQAETN[Aib]QILAQV-NH2 [SEQ ID NO 162], the “Emax (% I)” value in test [1] stood at 0%. Moreover, the EC50 [nM] (cAMP) in test [2] came out at 0.49 nM.

B1: SEQ ID NO 161 (peptide)
peptide: Ac-IVLSLD[dV]PIKLK([γGlu-C16 diacid])KILLEQEKQKAQREQAETN[Aib]QILAQV-NH2
SMILES: CC[C@H](C)[C@H](NC(C)=O)C(=O)N[C@H](C(=O)N[C@@H](CC(C)C)C(=O)N[C@@H](CO)C(=O)N[C@@H](CC(C)C)C(=O)N[C@@H](CC(=O)O)C(=O)N[C@@H](C(=O)N1CCC[C@H]1C(=O)N[C@H](C(=O)N[C@@H](CCCCN)C(=O)N[C@@H](CC(C)C)C(=O)N[C@@H](CCCCNC(=O)CC[C@H](NC(=O)CCCCCCCCCCCCCCC(=O)O)C(=O)O)C(=O)N[C@@H](CCCCN)C(=O)N[C@H](C(=O)N[C@@H](CC(C)C)C(=O)N[C@@H](CC(C)C)C(=O)N[C@@H](CCC(=O)O)C(=O)N[C@@H](CCC(N)=O)C(=O)N[C@@H](CCC(=O)O)C(=O)N[C@@H](CCCCN)C(=O)N[C@@H](CCC(N)=O)C(=O)N[C@@H](CCCCN)C(=O)N[C@@H](C)C(=O)N[C@@H](CCC(N)=O)C(=O)N[C@@H](CCCNC(=N)N)C(=O)N[C@@H](CCC(=O)O)C(=O)N[C@@H](CCC(N)=O)C(=O)N[C@@H](C)C(=O)N[C@@H](CCC(=O)O)C(=O)N[C@H](C(=O)N[C@@H](CC(N)=O)C(=O)NC(C)(C)C(=O)N[C@@H](CCC(N)=O)C(=O)N[C@H](C(=O)N[C@@H](CC(C)C)C(=O)N[C@@H](C)C(=O)N[C@@H](CCC(N)=O)C(=O)N[C@H](C(N)=O)C(C)C)[C@@H](C)CC)[C@@H](C)O)[C@@H](C)CC)[C@@H](C)CC)C(C)C)C(C)C
In the case of B1, the “Emax (% I)” value in test [1] was 3%. In test [2], this molecule displayed an EC50 [nM] (cAMP) of 0.32 nM.

B2: SEQ ID NO 8 (peptide)
peptide: Pentanoyl-VLSLD[dV]PIKLK([γGlu-C16 diacid])QILLKQERQKKQREQAEKNKQILEQV-NH2
SMILES: CCCCC(=O)N[C@H](C(=O)N[C@@H](CC(C)C)C(=O)N[C@@H](CO)C(=O)N[C@@H](CC(C)C)C(=O)N[C@@H](CC(=O)O)C(=O)N[C@@H](C(=O)N1CCC[C@H]1C(=O)N[C@H](C(=O)N[C@@H](CCCCN)C(=O)N[C@@H](CC(C)C)C(=O)N[C@@H](CCCCNC(=O)CC[C@H](NC(=O)CCCCCCCCCCCCCCC(=O)O)C(=O)O)C(=O)N[C@@H](CCC(N)=O)C(=O)N[C@H](C(=O)N[C@@H](CC(C)C)C(=O)N[C@@H](CC(C)C)C(=O)N[C@@H](CCCCN)C(=O)N[C@@H](CCC(N)=O)C(=O)N[C@@H](CCC(=O)O)C(=O)N[C@@H](CCCNC(=N)N)C(=O)N[C@@H](CCC(N)=O)C(=O)N[C@@H](CCCCN)C(=O)N[C@@H](CCCCN)C(=O)N[C@@H](CCC(N)=O)C(=O)N[C@@H](CCCNC(=N)N)C(=O)N[C@@H](CCC(=O)O)C(=O)N[C@@H](CCC(N)=O)C(=O)N[C@@H](C)C(=O)N[C@@H](CCC(=O)O)C(=O)N[C@@H](CCCCN)C(=O)N[C@@H](CC(N)=O)C(=O)N[C@@H](CCCCN)C(=O)N[C@@H](CCC(N)=O)C(=O)N[C@H](C(=O)N[C@@H](CC(C)C)C(=O)N[C@@H](CCC(=O)O)C(=O)N[C@@H](CCC(N)=O)C(=O)N[C@H](C(N)=O)C(C)C)[C@@H](C)CC)[C@@H](C)CC)[C@@H](C)CC)C(C)C)C(C)C
As for B2, in test [1], a half-maximal response (EC50) required 186 nM and the “Emax (% I)” value was found to be 50%. Besides, the EC50 [nM] (cAMP) in test [2] turned out to be 0.14 nM.

B3: SEQ ID NO 163 (peptide)
peptide: Ac-IVLSLD[dV]PIALK([γGlu-C16 diacid])KILLEQEKQKKQREQAETN[Aib]QILAQV-NH2
SMILES: CC[C@H](C)[C@H](NC(C)=O)C(=O)N[C@H](C(=O)N[C@@H](CC(C)C)C(=O)N[C@@H](CO)C(=O)N[C@@H](CC(C)C)C(=O)N[C@@H](CC(=O)O)C(=O)N[C@@H](C(=O)N1CCC[C@H]1C(=O)N[C@H](C(=O)N[C@@H](C)C(=O)N[C@@H](CC(C)C)C(=O)N[C@@H](CCCCNC(=O)CC[C@H](NC(=O)CCCCCCCCCCCCCCC(=O)O)C(=O)O)C(=O)N[C@@H](CCCCN)C(=O)N[C@H](C(=O)N[C@@H](CC(C)C)C(=O)N[C@@H](CC(C)C)C(=O)N[C@@H](CCC(=O)O)C(=O)N[C@@H](CCC(N)=O)C(=O)N[C@@H](CCC(=O)O)C(=O)N[C@@H](CCCCN)C(=O)N[C@@H](CCC(N)=O)C(=O)N[C@@H](CCCCN)C(=O)N[C@@H](CCCCN)C(=O)N[C@@H](CCC(N)=O)C(=O)N[C@@H](CCCNC(=N)N)C(=O)N[C@@H](CCC(=O)O)C(=O)N[C@@H](CCC(N)=O)C(=O)N[C@@H](C)C(=O)N[C@@H](CCC(=O)O)C(=O)N[C@H](C(=O)N[C@@H](CC(N)=O)C(=O)NC(C)(C)C(=O)N[C@@H](CCC(N)=O)C(=O)N[C@H](C(=O)N[C@@H](CC(C)C)C(=O)N[C@@H](C)C(=O)N[C@@H](CCC(N)=O)C(=O)N[C@H](C(N)=O)C(C)C)[C@@H](C)CC)[C@@H](C)O)[C@@H](C)CC)[C@@H](C)CC)C(C)C)C(C)C
With B3, in test [1], the “EC50” value is 190 nM and the “Emax (% I)” value stood at 53%. Besides, in test [2], the EC50 [nM] (cAMP) is 0.3 nM.

B4: SEQ ID NO 160 (peptide)
peptide: [NMeV]LSLD[dV]PIKLK([γGlu-C16 diacid])KILLEQEKQKKQREQAETN[Api]QILAQV-NH2
modifications: N-terminus assumed
SMILES: CC[C@H](C)[C@H](NC(=O)[C@H](CCC(N)=O)NC(=O)C1(NC(=O)[C@H](CC(N)=O)NC(=O)[C@@H](NC(=O)[C@H](CCC(=O)O)NC(=O)[C@H](C)NC(=O)[C@H](CCC(N)=O)NC(=O)[C@H](CCC(=O)O)NC(=O)[C@H](CCCNC(=N)N)NC(=O)[C@H](CCC(N)=O)NC(=O)[C@H](CCCCN)NC(=O)[C@H](CCCCN)NC(=O)[C@H](CCC(N)=O)NC(=O)[C@H](CCCCN)NC(=O)[C@H](CCC(=O)O)NC(=O)[C@H](CCC(N)=O)NC(=O)[C@H](CCC(=O)O)NC(=O)[C@H](CC(C)C)NC(=O)[C@H](CC(C)C)NC(=O)[C@@H](NC(=O)[C@H](CCCCN)NC(=O)[C@H](CCCCNC(=O)CC[C@H](NC(=O)CCCCCCCCCCCCCCC(=O)O)C(=O)O)NC(=O)[C@H](CC(C)C)NC(=O)[C@H](CCCCN)NC(=O)[C@@H](NC(=O)[C@@H]2CCCN2C(=O)[C@H](NC(=O)[C@H](CC(=O)O)NC(=O)[C@H](CC(C)C)NC(=O)[C@H](CO)NC(=O)[C@H](CC(C)C)NC(=O)[C@@H](NC)C(C)C)C(C)C)[C@@H](C)CC)[C@@H](C)CC)[C@@H](C)O)CCNCC1)C(=O)N[C@@H](CC(C)C)C(=O)N[C@@H](C)C(=O)N[C@@H](CCC(N)=O)C(=O)N[C@H](C(N)=O)C(C)C
For B4, the “Emax (% I)” value in test [1] was determined as 2%. The EC50 [nM] (cAMP) in test [2] stood at 2.08 nM.

B5: SEQ ID NO 164 (peptide)
peptide: Ac-IVLSLD[dV]PIKLK([γGlu-C16 diacid])AILLEQEKQKKQREQAETN[Aib]QILAQV-NH2
SMILES: CC[C@H](C)[C@H](NC(C)=O)C(=O)N[C@H](C(=O)N[C@@H](CC(C)C)C(=O)N[C@@H](CO)C(=O)N[C@@H](CC(C)C)C(=O)N[C@@H](CC(=O)O)C(=O)N[C@@H](C(=O)N1CCC[C@H]1C(=O)N[C@H](C(=O)N[C@@H](CCCCN)C(=O)N[C@@H](CC(C)C)C(=O)N[C@@H](CCCCNC(=O)CC[C@H](NC(=O)CCCCCCCCCCCCCCC(=O)O)C(=O)O)C(=O)N[C@@H](C)C(=O)N[C@H](C(=O)N[C@@H](CC(C)C)C(=O)N[C@@H](CC(C)C)C(=O)N[C@@H](CCC(=O)O)C(=O)N[C@@H](CCC(N)=O)C(=O)N[C@@H](CCC(=O)O)C(=O)N[C@@H](CCCCN)C(=O)N[C@@H](CCC(N)=O)C(=O)N[C@@H](CCCCN)C(=O)N[C@@H](CCCCN)C(=O)N[C@@H](CCC(N)=O)C(=O)N[C@@H](CCCNC(=N)N)C(=O)N[C@@H](CCC(=O)O)C(=O)N[C@@H](CCC(N)=O)C(=O)N[C@@H](C)C(=O)N[C@@H](CCC(=O)O)C(=O)N[C@H](C(=O)N[C@@H](CC(N)=O)C(=O)NC(C)(C)C(=O)N[C@@H](CCC(N)=O)C(=O)N[C@H](C(=O)N[C@@H](CC(C)C)C(=O)N[C@@H](C)C(=O)N[C@@H](CCC(N)=O)C(=O)N[C@H](C(N)=O)C(C)C)[C@@H](C)CC)[C@@H](C)O)[C@@H](C)CC)[C@@H](C)CC)C(C)C)C(C)C
Take B5: the “Emax (% I)” value in test [1] came to 14%. This molecule also registered an EC50 [nM] (cAMP) in test [2] of 2.43 nM.

B6: SEQ ID NO 165 (peptide)
peptide: Ac-IVLSLD[dV]PIKLK([γGlu-C16 diacid])KILLEQEAQKKQREQAETN[Aib]QILAQV-NH2
SMILES: CC[C@H](C)[C@H](NC(C)=O)C(=O)N[C@H](C(=O)N[C@@H](CC(C)C)C(=O)N[C@@H](CO)C(=O)N[C@@H](CC(C)C)C(=O)N[C@@H](CC(=O)O)C(=O)N[C@@H](C(=O)N1CCC[C@H]1C(=O)N[C@H](C(=O)N[C@@H](CCCCN)C(=O)N[C@@H](CC(C)C)C(=O)N[C@@H](CCCCNC(=O)CC[C@H](NC(=O)CCCCCCCCCCCCCCC(=O)O)C(=O)O)C(=O)N[C@@H](CCCCN)C(=O)N[C@H](C(=O)N[C@@H](CC(C)C)C(=O)N[C@@H](CC(C)C)C(=O)N[C@@H](CCC(=O)O)C(=O)N[C@@H](CCC(N)=O)C(=O)N[C@@H](CCC(=O)O)C(=O)N[C@@H](C)C(=O)N[C@@H](CCC(N)=O)C(=O)N[C@@H](CCCCN)C(=O)N[C@@H](CCCCN)C(=O)N[C@@H](CCC(N)=O)C(=O)N[C@@H](CCCNC(=N)N)C(=O)N[C@@H](CCC(=O)O)C(=O)N[C@@H](CCC(N)=O)C(=O)N[C@@H](C)C(=O)N[C@@H](CCC(=O)O)C(=O)N[C@H](C(=O)N[C@@H](CC(N)=O)C(=O)NC(C)(C)C(=O)N[C@@H](CCC(N)=O)C(=O)N[C@H](C(=O)N[C@@H](CC(C)C)C(=O)N[C@@H](C)C(=O)N[C@@H](CCC(N)=O)C(=O)N[C@H](C(N)=O)C(C)C)[C@@H](C)CC)[C@@H](C)O)[C@@H](C)CC)[C@@H](C)CC)C(C)C)C(C)C
Regarding B6, in test [1], the “Emax (% I)” value came to 14%. In addition, the EC50 [nM] (cAMP) in test [2] turned out to be 0.64 nM.

These data come from US20260001928A1 (CORTERIA PHARMACEUTICALS, priority 2022, published 2026).
